Data taken from the supplement of paper PMC11136658.

Tested on: peptide library, one residue held at a place counted from the Y acceptor
Assay: relative phosphorylation of the sub-library (ratio to the mean residue at this position); higher = residue favoured
Summary of the method: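 Purified recombinant kinases were incubated for 90 min in 384-well plates with biotinylated Tyr-centred peptide library mixtures, each fixing one residue at one position from −5 to +5, plus 50 μM ATP with γ-32P-ATP. Peptides were captured on streptavidin membranes, rinsed and quantified by phosphorimaging and ImageQuant. Intensities were normalized per position by the sum of the 18 (or 16, Ser/Thr-free library) randomized residues and multiplied by that number. Values give phosphorylation relative to the mean randomized residue.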

FGFR4, construct: aa442-end, human, sequence (P22455 442-802, looked up): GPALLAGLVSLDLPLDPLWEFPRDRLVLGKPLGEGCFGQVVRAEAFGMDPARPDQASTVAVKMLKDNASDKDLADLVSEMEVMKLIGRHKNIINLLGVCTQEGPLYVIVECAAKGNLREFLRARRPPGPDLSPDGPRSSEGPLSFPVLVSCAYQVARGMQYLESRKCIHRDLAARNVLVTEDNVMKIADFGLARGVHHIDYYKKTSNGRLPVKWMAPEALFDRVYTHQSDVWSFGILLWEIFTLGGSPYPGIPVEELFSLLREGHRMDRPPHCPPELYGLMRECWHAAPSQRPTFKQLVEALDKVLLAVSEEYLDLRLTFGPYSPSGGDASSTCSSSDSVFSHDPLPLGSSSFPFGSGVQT

FGFR4, construct: aa442-end, human (from UniProt P22455)
relative phosphorylation
Details | at +1 | at +2 | at +3 | at +4 | at +5 | at -1 | at -2 | at -3 | at -4 | at -5
A fixed | 0.811 | 0.623 | 0.572 | 0.823 | 2.94 | 0.585 | 1.06 | 0.944 | 1.14 | 1.01
D fixed | 0.352 | 1.4 | 0.818 | 1.14 | 0.931 | 2.54 | 1.38 | 1.84 | 1.64 | 1.42
E fixed | 0.566 | 2.01 | 0.647 | 1.39 | 0.71 | 2.03 | 1.75 | 2.52 | 2.01 | 1.38
F fixed | 1.94 | 1.17 | 1.42 | 0.906 | 1.21 | 0.91 | 0.593 | 0.712 | 0.88 | 0.793
G fixed | 0.379 | 0.43 | 0.621 | 1.21 | 0.692 | 0.401 | 1.08 | 1.09 | 1.22 | 1.31
H fixed | 1.55 | 0.88 | 0.767 | 1.13 | 0.954 | 0.985 | 1.05 | 1 | 0.977 | 1.08
I fixed | 1.8 | 1.21 | 2.44 | 0.869 | 0.75 | 1.89 | 0.902 | 0.626 | 0.732 | 0.929
K fixed | 0.29 | 0.37 | 0.27 | 0.602 | 0.913 | 0.311 | 0.693 | 0.614 | 0.699 | 0.845
L fixed | 1.25 | 1.05 | 2.03 | 0.841 | 0.922 | 1.12 | 0.839 | 0.639 | 0.808 | 0.898
M fixed | 1.53 | 1.1 | 1.53 | 1.07 | 0.841 | 0.828 | 0.681 | 0.834 | 0.767 | 0.908
N fixed | 0.341 | 1.04 | 0.425 | 0.873 | 0.832 | 1.03 | 1.05 | 1.25 | 1.03 | 1.1
P fixed | 0.49 | 0.708 | 0.891 | 1.37 | 0.769 | 0.65 | 1.19 | 0.862 | 1.1 | 1.17
Q fixed | 0.678 | 0.705 | 0.524 | 0.94 | 0.927 | 0.646 | 1.11 | 0.901 | 1.07 | 1.03
R fixed | 0.458 | 0.535 | 0.364 | 0.781 | 0.865 | 0.292 | 0.657 | 0.73 | 0.667 | 0.866
S fixed | 0.799 | 0.864 | 0.579 | 0.938 | 0.916 | 0.467 | 1.07 | 1.07 | 0.849 | 0.856
T fixed | 0.807 | 0.934 | 0.686 | 0.88 | 0.625 | 0.966 | 1 | 0.883 | 0.644 | 0.807
V fixed | 1.74 | 1.2 | 1.92 | 0.817 | 0.81 | 1.38 | 1.25 | 0.683 | 0.741 | 0.779
W fixed | 2.22 | 1.77 | 1.5 | 1.43 | 1.4 | 0.952 | 0.639 | 0.794 | 1.02 | 0.811
pThr fixed | 0.826 | 1.95 | 0.731 | 1 | 0.75 | 1.29 | 1.3 | 1.84 | 1.85 | 1.29
pTyr fixed | 3.85 | 6.17 | 1.24 | 1.34 | 0.82 | 7.16 | 1.79 | 2.69 | 2.45 | 1.36
